In the test the target is T1, GB-yeIF5-B6 (S. cerevisiae, UniProt P38431 241-405).
T1 sequence (looked up): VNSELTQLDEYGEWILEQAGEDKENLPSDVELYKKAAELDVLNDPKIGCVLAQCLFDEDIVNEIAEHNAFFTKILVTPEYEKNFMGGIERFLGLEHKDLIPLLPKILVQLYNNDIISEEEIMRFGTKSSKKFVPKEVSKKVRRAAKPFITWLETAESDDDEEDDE
As to the kind of experiment: pull-down.

B1: GST-yeIF1A ΔC (lacking aa. 108-153) (domain or fragment, S. cerevisiae, UniProt P38912 1-107, looked up)
chain: MGKKNTKGGKKGRRGKNDSDGPKRELIYKEEGQEYAQITKMLGNGRVEASCFDGNKRMAHIRGKLRKKVWMGQGDIILVSLRDFQDDQCDVVHKYNLDEARTLKNQG
In the case of B1, the binding result is recorded as “binds”.

The values are drawn from publication PMC3917153 (Biochemistry, 2013).
